Molecular target: CycN cytochrome c protein (Pseudomonas putida S16) (Pseudomonas putida S16)
Experiment: anaerobic stopped-flow spectrophotometry at 542 nm, 4 °C; NicA2-Flred mixed with excess CycNox; linear fit of first-phase kobs against CycNox concentration, said to report on the bimolecular association of the two proteins

B1: NicA2 nicotine oxidoreductase (wild-type, Pseudomonas putida S16) (enzyme)
chain: TQKTNRASTVKGGFDYDVVVVGGGFAGATAARECGLQGYRTLLLEARSRLGGRTFTSRFAGQEIEFGGAWVHWLQPHVWAEMQRYGLGVVEDPLTNLDKTLIMYNDGSVESISPDEFGKNIRIAFEKLCHDAWEVFPRPHEPMFTERARELDKSSVLDRIKTLGLSRLQQAQINSYMALYAGETTDKFGLPGVLKLFACGGWNYDAFMDTETHYRIQGGTIGLINAMLTDSGAEVRMSVPVTAVEQVNGGVKIKTDDDEIITAGVVVMTVPLNTYKHIGFTPALSKGKQRFIKEGQLSKGAKLYVHVKQNLGRVFAFADEQQPLNWVQTHDYSDELGTILSITIARKETIDVNDRDAVTREVQKMFPGVEVLGTAAYDWTADPFSLGAWAAYGVGQLSRLKDLQAAEGRILFAGAETSNGWHANIDGAVESGLRAGREVKQLLS
B1 gave a kon of 1.3e+06 M⁻¹ s⁻¹.

— patent US20230212533A1, “PRODUCTS AND METHODS FOR THE TREATMENT OF NICOTINE DEPENDENCE” (THE REGENTS OF THE UNIVERSITY OF MICHIGAN, priority 2020, published 2023)
